Experimental data reported in PMC5343618, “Multimer recognition and secretion by the non-classical secretion pathway in Bacillus subtilis” (Scientific Reports, 2017).

B1: general stress protein (YceD) (natural protein, B. subtilis 168, UniProt P80875 1-193, looked up)
chain: MTISLAKGQKVDLTKTNPGLSKVVVGLGWDTNKYDGGHDFDLDSSVFLLDAAGKCASPNDFIFYNQLEGGNGSVVHSGDNLTGAGEGDDENVKVNLSAVPANIDKISFVITIHDAEARSQNFGQVSNAFVRIVNEETNEELIRYDLAEDFSIETAIIAGELYRHNGEWKFSAIGSGYQGGLARIATDYGLQVG
notes: general stress protein YceD, B. subtilis; gene amplified from B. subtilis 168 chromosomal DNA; Seen as monomer and as dimer; source: B. subtilis 1A751, overexpressed from a pMAR-derived plasmid; cytoplasmic fraction and culture supernatant, not purified
B2: transaldolase (YwjH) (enzyme, B. subtilis 168, UniProt P19669 1-212, looked up)
chain: MLFFVDTANIDEIREANELGILAGVTTNPSLVAKEANVSFHDRLREITDVVKGSVSAEVISLKAEEMIEEGKELAKIAPNITVKIPMTSDGLKAVRALTDLGIKTNVTLIFNANQALLAARAGATYVSPFLGRLDDIGHNGLDLISEVKQIFDIHGLDTQIIAASIRHPQHVTEAALRGAHIGTMPLKVIHALTKHPLTDKGIEQFLADWNK
notes: transaldolase (YwjH), B. subtilis; gene amplified from B. subtilis 168 chromosomal DNA; source: B. subtilis 1A751, overexpressed from a pMAR-derived plasmid; cytoplasmic fraction and culture supernatant, not purified
B3: vegetative catalase (KatA) (enzyme, B. subtilis 168, UniProt P26901 1-483, looked up)
chain: MSSNKLTTSWGAPVGDNQNSMTAGSRGPTLIQDVHLLEKLAHFNRERVPERVVHAKGAGAHGYFEVTNDVTKYTKAAFLSEVGKRTPLFIRFSTVAGELGSADTVRDPRGFAVKFYTEEGNYDIVGNNTPVFFIRDAIKFPDFIHTQKRDPKTHLKNPTAVWDFWSLSPESLHQVTILMSDRGIPATLRHMHGFGSHTFKWTNAEGEGVWIKYHFKTEQGVKNLDVNTAAKIAGENPDYHTEDLFNAIENGDYPAWKLYVQIMPLEDANTYRFDPFDVTKVWSQKDYPLIEVGRMVLDRNPENYFAEVEQATFSPGTLVPGIDVSPDKMLQGRLFAYHDAHRYRVGANHQALPINRARNKVNNYQRDGQMRFDDNGGGSVYYEPNSFGGPKESPEDKQAAYPVQGIADSVSYDHYDHYTQAGDLYRLMSEDERTRLVENIVNAMKPVEKEEIKLRQIEHFYKADPEYGKRVAEGLGLPIKKDS
notes: vegetative catalase (KatA), B. subtilis; gene amplified from B. subtilis 168 chromosomal DNA; source: B. subtilis 1A751, overexpressed from a pMAR-derived plasmid; cytoplasmic fraction and culture supernatant, not purified
B4: pyruvate dehydrogenase PdhD (enzyme, B. subtilis 168, UniProt P21880 1-470, looked up)
chain: MVVGDFPIETDTLVIGAGPGGYVAAIRAAQLGQKVTVVEKATLGGVCLNVGCIPSKALINAGHRYENAKHSDDMGITAENVTVDFTKVQEWKASVVNKLTGGVAGLLKGNKVDVVKGEAYFVDSNSVRVMDENSAQTYTFKNAIIATGSRPIELPNFKYSERVLNSTGALALKEIPKKLVVIGGGYIGTELGTAYANFGTELVILEGGDEILPGFEKQMSSLVTRRLKKKGNVEIHTNAMAKGVEERPDGVTVTFEVKGEEKTVDADYVLITVGRRPNTDELGLEQVGIEMTDRGIVKTDKQCRTNVPNIYAIGDIIEGPPLAHKASYEGKIAAEAIAGEPAEIDYLGIPAVVFSEPELASVGYTEAQAKEEGLDIVAAKFPFAANGRALSLNETDGFMKLITRKEDGLVIGAQIAGASASDMISELSLAIEGGMTAEDIAMTIHAHPTLGEITMEAAEVAIGSPIHIVK
notes: pyruvate dehydrogenase PdhD, B. subtilis; gene amplified from B. subtilis 168 chromosomal DNA; source: B. subtilis 1A751, overexpressed from a pMAR-derived plasmid; cytoplasmic fraction and culture supernatant, not purified
B5: 1-pyrroline-5-carboxylate dehydrogenase (YcgN) (enzyme, B. subtilis 168, UniProt P94391 1-515, looked up)
chain: MTTPYKHEPFTNFQDQNNVEAFKKALATVSEYLGKDYPLVINGERVETEAKIVSINPADKEEVVGRVSKASQEHAEQAIQAAAKAFEEWRYTSPEERAAVLFRAAAKVRRRKHEFSALLVKEAGKPWNEADADTAEAIDFMEYYARQMIELAKGKPVNSREGEKNQYVYTPTGVTVVIPPWNFLFAIMAGTTVAPIVTGNTVVLKPASATPVIAAKFVEVLEESGLPKGVVNFVPGSGAEVGDYLVDHPKTSLITFTGSREVGTRIFERAAKVQPGQQHLKRVIAEMGGKDTVVVDEDADIELAAQSIFTSAFGFAGQKCSAGSRAVVHEKVYDQVLERVIEITESKVTAKPDSADVYMGPVIDQGSYDKIMSYIEIGKQEGRLVSGGTGDDSKGYFIKPTIFADLDPKARLMQEEIFGPVVAFCKVSDFDEALEVANNTEYGLTGAVITNNRKHIERAKQEFHVGNLYFNRNCTGAIVGYHPFGGFKMSGTDSKAGGPDYLALHMQAKTISEMF
notes: 1-pyrroline-5-carboxylate dehydrogenase (YcgN), B. subtilis; gene amplified from B. subtilis 168 chromosomal DNA; source: B. subtilis 1A751, overexpressed from a pMAR-derived plasmid; cytoplasmic fraction and culture supernatant, not purified
B6: glyceraldehyde 3-phosphate dehydrogenase (GapA) (enzyme, B. subtilis 168, UniProt P09124 1-335, looked up)
chain: MAVKVGINGFGRIGRNVFRAALNNPEVEVVAVNDLTDANMLAHLLQYDSVHGKLDAEVSVDGNNLVVNGKTIEVSAERDPAKLSWGKQGVEIVVESTGFFTKRADAAKHLEAGAKKVIISAPANEEDITIVMGVNEDKYDAANHDVISNASCTTNCLAPFAKVLNDKFGIKRGMMTTVHSYTNDQQILDLPHKDYRRARAAAENIIPTSTGAAKAVSLVLPELKGKLNGGAMRVPTPNVSLVDLVAELNQEVTAEEVNAALKEAAEGDLKGILGYSEEPLVSGDYNGNKNSSTIDALSTMVMEGSMVKVISWYDNESGYSNRVVDLAAYIAKKGL
notes: glyceraldehyde 3-phosphate dehydrogenase (GapA), B. subtilis; gene amplified from B. subtilis 168 chromosomal DNA; source: B. subtilis 1A751, overexpressed from a pMAR-derived plasmid; cytoplasmic fraction and culture supernatant, not purified
B7: molecular chaperone (GroEL) (natural protein, B. subtilis 168, UniProt P28598 1-544, looked up)
chain: MAKEIKFSEEARRAMLRGVDALADAVKVTLGPKGRNVVLEKKFGSPLITNDGVTIAKEIELEDAFENMGAKLVAEVASKTNDVAGDGTTTATVLAQAMIREGLKNVTAGANPVGVRKGMEQAVAVAIENLKEISKPIEGKESIAQVAAISAADEEVGSLIAEAMERVGNDGVITIEESKGFTTELEVVEGMQFDRGYASPYMVTDSDKMEAVLDNPYILITDKKITNIQEILPVLEQVVQQGKPLLLIAEDVEGEALATLVVNKLRGTFNAVAVKAPGFGDRRKAMLEDIAVLTGGEVITEDLGLDLKSTQIAQLGRASKVVVTKENTTIVEGAGETDKISARVTQIRAQVEETTSEFDREKLQERLAKLAGGVAVIKVGAATETELKERKLRIEDALNSTRAAVEEGIVSGGGTALVNVYNKVAAVEAEGDAQTGINIVLRALEEPIRQIAHNAGLEGSVIVERLKNEEIGVGFNAATGEWVNMIEKGIVDPTKVTRSALQNAASVAAMFLTTEAVVADKPEENGGGAGMPDMGGMGGMGGMM
notes: molecular chaperone GroEL, B. subtilis; gene amplified from B. subtilis 168 chromosomal DNA; source: B. subtilis 1A751, overexpressed from a pMAR-derived plasmid; cytoplasmic fraction and culture supernatant, not purified
B8: fructose 1,6-bisphosphate aldolase (FbaA) (enzyme, B. subtilis 168, UniProt P13243 1-285, looked up)
chain: MPLVSMTEMLNTAKEKGYAVGQFNLNNLEFTQAILQAAEEEKSPVILGVSEGAGRYMGGFKTVVAMVKALMEEYKVTVPVAIHLDHGSSFESCAKAIHAGFTSVMIDASHHPFEENVATTAKVVELAHFHGVSVEAELGTVGGQEDDVIAEGVIYADPKECQELVERTGIDCLAPALGSVHGPYKGEPNLGFKEMEEIGKSTGLPLVLHGGTGIPTADIKKSISLGTAKINVNTENQISSAKAVRETLAAKPDEYDPRKYLGPAREAIKETVIGKMREFGSSNQA
notes: fructose 1,6-bisphosphate aldolase (FbaA), B. subtilis; gene amplified from B. subtilis 168 chromosomal DNA; source: B. subtilis 1A751, overexpressed from a pMAR-derived plasmid; cytoplasmic fraction and culture supernatant, not purified
B9: superoxide dismutase (SodA) (enzyme, B. subtilis 168, UniProt P54375 1-202, looked up)
chain: MAYELPELPYAYDALEPHIDKETMTIHHTKHHNTYVTNLNKAVEGNTALANKSVEELVADLDSVPENIRTAVRNNGGGHANHKLFWTLLSPNGGGEPTGALAEEINSVFGSFDKFKEQFAAAAAGRFGSGWAWLVVNNGKLEITSTPNQDSPLSEGKTPILGLDVWEHAYYLNYQNRRPDYISAFWNVVNWDEVARLYSEAK
notes: superoxide dismutase (SodA), B. subtilis; gene amplified from B. subtilis 168 chromosomal DNA; source: B. subtilis 1A751, overexpressed from a pMAR-derived plasmid; cytoplasmic fraction and culture supernatant, not purified
B10: arginase (RocF) (enzyme, B. subtilis 168, UniProt P39138 1-296, looked up)
chain: MDKTISVIGMPMDLGQARRGVDMGPSAIRYAHLIERLSDMGYTVEDLGDIPINREKIKNDEELKNLNSVLAGNEKLAQKVNKVIEEKKFPLVLGGDHSIAIGTLAGTAKHYDNLGVIWYDAHGDLNTLETSPSGNIHGMPLAVSLGIGHESLVNLEGYAPKIKPENVVIIGARSLDEGERKYIKESGMKVYTMHEIDRLGMTKVIEETLDYLSACDGVHLSLDLDGLDPNDAPGVGTPVVGGISYRESHLAMEMLYDAGIITSAEFVEVNPILDHKNKTGKTAVELVESLLGKKLL
notes: arginase (RocF), B. subtilis; gene amplified from B. subtilis 168 chromosomal DNA; source: B. subtilis 1A751, overexpressed from a pMAR-derived plasmid; cytoplasmic fraction and culture supernatant, not purified

Molecular target: the molecule itself
Assay: native gel or EMSA; blue native PAGE (BN-PAGE) of the soluble cytoplasmic fraction and the culture supernatant of B. subtilis after 24 h of cultivation; non-reducing sample buffer, Coomassie blue; mass estimated within ±15%

Protein	stoichiometry N
B1	2
B2	7
B3	4
B4	2
B5	4
B6	3
B7	2
B8	5
B9	2
B10	5
